US20240025993A1, “CD19 BINDING MOLECULES AND USES THEREOF” (NOVARTIS AG, priority 2020, published 2024)

biological target: human Fc gamma receptor 1A (human) (UniProt P12314); assay: SPR (Biacore T200), antibody amine-coupled on CM5 chip, receptor as analyte
Sequence (P12314 16-288 limits assumed): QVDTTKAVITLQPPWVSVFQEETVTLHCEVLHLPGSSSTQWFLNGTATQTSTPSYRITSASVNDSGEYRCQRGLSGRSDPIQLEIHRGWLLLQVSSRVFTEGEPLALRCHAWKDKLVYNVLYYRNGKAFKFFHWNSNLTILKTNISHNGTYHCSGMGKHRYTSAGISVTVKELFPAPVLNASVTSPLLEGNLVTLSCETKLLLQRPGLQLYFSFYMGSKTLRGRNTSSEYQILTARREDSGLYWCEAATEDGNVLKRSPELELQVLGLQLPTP

Row | Maximum response at 100 nM hFcgammaRIA (RU) | Substance
1 | 16 | Anti-CD3 human IgG1 antibody, GADAPA Fc variant (G237A/D265A/P329A)
2 | 9 | Anti-CD3 human IgG1 antibody, LALASKPA Fc variant (L234A/L235A/S267K/P329A)
3 | 11 | Anti-CD3 human IgG1 antibody, DANAPA Fc variant (D265A/N297A/P329A)
4 | 18 | Anti-CD3 human IgG1 antibody, LALAPG Fc variant (L234A/L235A/P329G)
5 | 10 | Anti-CD3 human IgG1 antibody, GADAPASK Fc variant (G237A/D265A/P329A/S267K)
6 | 13 | Anti-CD3 human IgG1 antibody, DAPASK Fc variant (D265A/P329A/S267K)
7 | 15 | Anti-CD3 human IgG1 antibody, LALAGA Fc variant (L234A/L235A/G237A)
